Results: US20140113831A1 (published 2014)

Molecular target: T1, human PDGFRb (human, UniProt P09619 33-531)
T1 chain: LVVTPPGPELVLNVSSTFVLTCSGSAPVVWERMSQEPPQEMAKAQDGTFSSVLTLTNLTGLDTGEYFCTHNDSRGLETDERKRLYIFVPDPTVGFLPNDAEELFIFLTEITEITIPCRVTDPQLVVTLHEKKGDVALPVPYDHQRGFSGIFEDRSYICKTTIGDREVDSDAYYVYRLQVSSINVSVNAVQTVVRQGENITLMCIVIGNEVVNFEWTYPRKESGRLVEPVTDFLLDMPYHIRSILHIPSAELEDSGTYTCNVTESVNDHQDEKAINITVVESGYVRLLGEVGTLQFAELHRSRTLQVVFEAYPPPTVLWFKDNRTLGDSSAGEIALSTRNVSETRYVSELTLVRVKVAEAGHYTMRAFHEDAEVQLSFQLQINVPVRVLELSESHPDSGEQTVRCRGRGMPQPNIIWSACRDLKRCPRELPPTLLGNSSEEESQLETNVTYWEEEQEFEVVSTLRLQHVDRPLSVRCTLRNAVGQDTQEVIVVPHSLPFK
Assay: solution binding affinity (35S Met labeled)

Kd: 0.03 nM
B1: scFv XB2202-A4 (scFv, V domains shown)
VH: QVQLVQSGAEVKKPGSSVRVSCKASGGTFSRHAISWVRQAPGQGLEWIGGILPILKTPNYAQRFQGRVTINADESTSTVYMEMSSLRSEDTAVYYCATHGGDRSYWGQGTLVTVSS
VL: DVVMTQSPSSLSASVGDRVTITCQASQDISNWLNWYQQKPGKAPKLLIYEASNLETGVPSRFSGSGSGTDFTFTISSLQPEDIATYYCQQYNNVLRTFGQGTKVEIK
